For test [1], the target named is His-tagged recombinant human SMN protein (ProteinTech, catalog # ag14333) (human) (UniProt Q16637). In words: BLI (BLItz), His-tagged SMN immobilised on the biosensor tip, antibody in solution.
Test [2] shares this target. Nature of the test: Erenna sandwich assay, capture PT 60154-1-Ig; SMN 10 pg/mL, MPs 5 µg/well, Det Ab 50 ng/mL, Cap Ab/MP 25 µg/mg.
Test [3] has the same target. Nature of the test: Erenna sandwich assay, capture PT 60154-1-Ig; SMN 10 pg/mL, MPs 10 µg/well, Det Ab 50 ng/mL, Cap Ab/MP 25 µg/mg.
Test [4] has the same target. In words: Erenna sandwich assay, capture PT 60154-1-Ig; SMN 10 pg/mL, MPs 5 µg/well, Det Ab 100 ng/mL, Cap Ab/MP 25 µg/mg.
The target is the same in test [5]. Nature of the test: Erenna sandwich assay, capture PT 60154-1-Ig; SMN 10 pg/mL, MPs 5 µg/well, Det Ab 500 ng/mL, Cap Ab/MP 25 µg/mg.
The target is the same in test [6]. In words: Erenna sandwich assay, capture PT 60154-1-Ig; SMN 10 pg/mL, MPs 10 µg/well, Det Ab 100 ng/mL, Cap Ab/MP 25 µg/mg.
The target is the same in test [7]. In words: Erenna sandwich assay, capture PT 60154-1-Ig; SMN 10 pg/mL, MPs 10 µg/well, Det Ab 500 ng/mL, Cap Ab/MP 25 µg/mg.
Test [8] has the same target. In words: Erenna sandwich assay, capture PT 60154-1-Ig; SMN 10 pg/mL, MPs 5 µg/well, Det Ab 1000 ng/mL, Cap Ab/MP 25 µg/mg.
For test [9] the target is unchanged. Nature of the test: Erenna sandwich assay, capture PT 60154-1-Ig; SMN 10 pg/mL, MPs 5 µg/well, Det Ab 50 ng/mL, Cap Ab/MP 12.5 µg/mg.
Test [10] shares this target. In words: Erenna sandwich assay, capture PT 60154-1-Ig; SMN 10 pg/mL, MPs 10 µg/well, Det Ab 1000 ng/mL, Cap Ab/MP 25 µg/mg.
For test [11] the target is unchanged. Nature of the test: Erenna sandwich assay, capture PT 60154-1-Ig; SMN 10 pg/mL, MPs 10 µg/well, Det Ab 50 ng/mL, Cap Ab/MP 12.5 µg/mg.
Test [12] shares this target. Nature of the test: Erenna sandwich assay, capture PT 60154-1-Ig; SMN 10 pg/mL, MPs 5 µg/well, Det Ab 100 ng/mL, Cap Ab/MP 12.5 µg/mg.
The target is the same in test [13]. Nature of the test: Erenna sandwich assay, capture PT 60154-1-Ig; SMN 10 pg/mL, MPs 5 µg/well, Det Ab 500 ng/mL, Cap Ab/MP 12.5 µg/mg.
For test [14] the target is unchanged. In words: Erenna sandwich assay, capture PT 60154-1-Ig; SMN 10 pg/mL, MPs 10 µg/well, Det Ab 100 ng/mL, Cap Ab/MP 12.5 µg/mg.
For test [15] the target is unchanged. In words: Erenna sandwich assay, capture PT 60154-1-Ig; SMN 10 pg/mL, MPs 10 µg/well, Det Ab 500 ng/mL, Cap Ab/MP 12.5 µg/mg.
Test [16] has the same target. In words: Erenna sandwich assay, capture PT 60154-1-Ig; SMN 10 pg/mL, MPs 5 µg/well, Det Ab 1000 ng/mL, Cap Ab/MP 12.5 µg/mg.
Test [17] has the same target. In words: Erenna sandwich assay, capture PT 60154-1-Ig; SMN 10 pg/mL, MPs 10 µg/well, Det Ab 1000 ng/mL, Cap Ab/MP 12.5 µg/mg.

Where only a bound is given, the exact number is not on record here.

UniProt Q16637, sequence (Q16637 whole entry): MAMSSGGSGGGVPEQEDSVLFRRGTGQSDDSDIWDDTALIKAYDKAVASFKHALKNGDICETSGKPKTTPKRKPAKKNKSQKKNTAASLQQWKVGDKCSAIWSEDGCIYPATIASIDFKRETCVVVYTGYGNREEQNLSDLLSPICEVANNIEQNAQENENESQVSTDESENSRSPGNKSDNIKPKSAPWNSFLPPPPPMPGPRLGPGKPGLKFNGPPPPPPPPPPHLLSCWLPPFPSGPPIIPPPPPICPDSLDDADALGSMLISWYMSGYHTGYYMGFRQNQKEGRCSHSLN

Consider “Millipore anti-SMN2 (catalog # MABE230) (antibody)”, for which the Kd in test [1] was less than 0.001 nM. The koff in test [1] was less than 1e-07 s⁻¹. For the same substance, the kon in test [1] is 105000 M⁻¹ s⁻¹. Also, the detected events (DE) (detected events) turned out to be 256 in test [2]; 269 in [3]; 481 in test [4]; 2040 in test [5]; 505 in [6]; 2140 in [7]. Also, the detected events (DE) (detected events) in test [8] worked out at 3440; in test [9], 231; in [10], 3370; in test [11], 302; in [12] it was 501; in test [13], 1960. For the same substance, the detected events (DE) (detected events) in [14] is 523; in [15], 2180; in [16], 3570; in test [17] it was 3720.

As to “Enzo anti-SMN1 (catalog # ADI-NBA-202-200) (antibody)”, in [1], the Kd is less than 0.1 nM, the koff was less than 1e-07 s⁻¹ and the kon amounted to 12300 M⁻¹ s⁻¹.

As to “ProteinTech anti-SMN2 (catalog #60154-2-Ig) (antibody)”, in test [1], the Kd was less than 1 nM, the koff was less than 1e-07 s⁻¹ and the kon stood at 884 M⁻¹ s⁻¹.

For the substance “BD Biosciences anti-SMN (catalog #610647) (antibody)”, the association rate constant (kon) in [1] is 637000 M⁻¹ s⁻¹.

Source of the values: US20170363643A1.
